One test addresses T1, MCAM (human, UniProt P43121 24-646).
T1 construct: whole, on cells; also called MUC18; cell surface glycoprotein MUC18
The test can be described thus: membrane protein array validation: flow cytometry on unfixed cells expressing the protein, serial dilutions in buffer with 10% human serum albumin, fluorescently labeled secondary antibody that binds ISVDs.

The target of another test is T2, DCC (human, UniProt P43146).
T2 construct: overexpressed on live cells from an expression plasmid; Tested in the validation titration of the membrane protein array
Described as above.

Test [1] deals with T3, cynomolgus CX3CR1 (cynomolgus monkey (Macaca fascicularis), UniProt P49238 1-355 (human entry)).
T3 construct: Overexpressed on CHO K1 cells; also called cyno CX3CR1; cyCX3CR1
T3 chain: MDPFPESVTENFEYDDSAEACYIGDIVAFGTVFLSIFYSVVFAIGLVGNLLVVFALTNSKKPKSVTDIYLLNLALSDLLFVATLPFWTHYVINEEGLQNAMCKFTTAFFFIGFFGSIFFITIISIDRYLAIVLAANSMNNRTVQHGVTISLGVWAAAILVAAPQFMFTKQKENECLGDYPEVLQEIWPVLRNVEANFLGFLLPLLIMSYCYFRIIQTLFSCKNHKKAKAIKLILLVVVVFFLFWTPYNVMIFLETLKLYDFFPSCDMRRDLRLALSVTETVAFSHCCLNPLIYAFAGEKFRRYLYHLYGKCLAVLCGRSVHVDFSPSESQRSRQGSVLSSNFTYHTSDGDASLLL
Kind of test: MSD-SET in-solution affinity on cell expressed cyno CX3CR1, 30 uM HSA, geometric mean of N = 3. The method, then: The affinity was determined on 3 independent assay occasions.

The target in test [2] is T3, cynomolgus CX3CR1. The test can be described thus: flow cytometry on CHO K1 cyCX3CR1 cells, 30 uM HSA. As for the experimental part: (§1) CHO cells overexpressing human or cynomolgus CX3CR1 were generated using techniques known in the art. Cells were harvested and resuspended in assay buffer (PBS, 2% FBS, 0.05% NaN3) and seeded separately in 384-well Bio-One V-bottom plates (Greiner, Cat. No. 781280), with a total of 2E04 cells seeded per well. After washing, serial dilutions of multivalent ISVD construct (starting from 250 nM, 3-fold dilution, 11 points, diluted in assay buffer), were added and incubated for 4 hours at 4° C. Binding was performed in the presence of 30 uM HSA (Sigma-Aldrich, Cat. No. A8763). Plates were then washed 3 times and cells were incubated with an anti-VHH mouse antibody (3300-fold diluted in assay buffer) for 30 minutes at 4′° C. […] Plates were finally washed 3 times and cells were resuspended in PI (Miltenyi Biotec, Cat. No. 130-093-233, 1000-fold diluted in assay buffer). Cell suspensions were analyzed with iQue Screener PLUS (Intellicyt). EC50s were estimated by dose response modelling. Curves were fit using 4 parameter logistic regression in GraphPad (GraphPad Software Inc.). A purified anti-human CX3CR1 antibody [K0124E1] (BioLegend, Cat. No. 355701/355702) was used as positive control to detect CX3CR1 expression on the cell surface.

For a further test, the target named is T4, human CX3CR1 V249I/T280M (human, UniProt P49238 1-355).
T4 construct: Transiently transfected in HEK293T cells (pcDNA3.1); also called huCX3CR1 variant V249I and T280M
T4 chain: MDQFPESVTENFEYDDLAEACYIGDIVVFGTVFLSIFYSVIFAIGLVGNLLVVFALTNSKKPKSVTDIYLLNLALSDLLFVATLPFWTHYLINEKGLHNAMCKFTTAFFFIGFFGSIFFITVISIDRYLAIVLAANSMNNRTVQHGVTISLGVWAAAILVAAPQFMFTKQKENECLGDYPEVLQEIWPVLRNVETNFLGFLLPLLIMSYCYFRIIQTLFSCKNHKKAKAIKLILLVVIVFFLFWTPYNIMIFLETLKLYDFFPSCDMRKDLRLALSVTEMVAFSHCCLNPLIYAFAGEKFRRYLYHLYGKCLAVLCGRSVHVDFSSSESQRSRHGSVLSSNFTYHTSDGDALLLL
Kind of test: flow cytometry on HEK293T cells transiently transfected with human CX3CR1 V249I + T280M; detection with anti-VHH mouse antibody and goat anti-mouse Fc APC, as in Example 5.1. The method, then: Plates were then washed 3 times and cells were incubated with an anti-VHH mouse antibody (3300-fold diluted in assay buffer) for 30 minutes at 4′° C. […] Plates were finally washed 3 times and cells were resuspended in PI (Miltenyi Biotec, Cat. No. 130-093-233, 1000-fold diluted in assay buffer). Cell suspensions were analyzed with iQue Screener PLUS (Intellicyt). EC50s were estimated by dose response modelling. Curves were fit using 4 parameter logistic regression in GraphPad (GraphPad Software Inc.). A purified anti-human CX3CR1 antibody [K0124E1] (BioLegend, Cat. No. 355701/355702) was used as positive control to detect CX3CR1 expression on the cell surface.
Two important SNPs are described in huCX3CR1, i.e. V2491 (Rs3732379) and T280M (Rs3732378), which might influence receptor activity and binding by the ISVD. […] Different combinations of these SNPs were introduced in human CX3CR1, and binding by 5 selected multivalent ISVD constructs was assessed with flow cytometry after transient transfection of the huCX3CR1 variants in HEK293T cells.
In short, the CX3CR1 constructs were cloned into pcDNA3.1 (ThermoFisher Scientific, Cat. No. V79020) and plasmid DNA was prepared from Escherichia coli TOP10 cells. […]

In test [3] the target is T3, cynomolgus CX3CR1. Kind of test: flow cytometry on CHO K1 cells; tied to A041600085 by Table B-4 (5.6E-10 against 1.7E-10). As for the experimental part:
as §1

T2 sequence (P43146 26-1447 limits assumed): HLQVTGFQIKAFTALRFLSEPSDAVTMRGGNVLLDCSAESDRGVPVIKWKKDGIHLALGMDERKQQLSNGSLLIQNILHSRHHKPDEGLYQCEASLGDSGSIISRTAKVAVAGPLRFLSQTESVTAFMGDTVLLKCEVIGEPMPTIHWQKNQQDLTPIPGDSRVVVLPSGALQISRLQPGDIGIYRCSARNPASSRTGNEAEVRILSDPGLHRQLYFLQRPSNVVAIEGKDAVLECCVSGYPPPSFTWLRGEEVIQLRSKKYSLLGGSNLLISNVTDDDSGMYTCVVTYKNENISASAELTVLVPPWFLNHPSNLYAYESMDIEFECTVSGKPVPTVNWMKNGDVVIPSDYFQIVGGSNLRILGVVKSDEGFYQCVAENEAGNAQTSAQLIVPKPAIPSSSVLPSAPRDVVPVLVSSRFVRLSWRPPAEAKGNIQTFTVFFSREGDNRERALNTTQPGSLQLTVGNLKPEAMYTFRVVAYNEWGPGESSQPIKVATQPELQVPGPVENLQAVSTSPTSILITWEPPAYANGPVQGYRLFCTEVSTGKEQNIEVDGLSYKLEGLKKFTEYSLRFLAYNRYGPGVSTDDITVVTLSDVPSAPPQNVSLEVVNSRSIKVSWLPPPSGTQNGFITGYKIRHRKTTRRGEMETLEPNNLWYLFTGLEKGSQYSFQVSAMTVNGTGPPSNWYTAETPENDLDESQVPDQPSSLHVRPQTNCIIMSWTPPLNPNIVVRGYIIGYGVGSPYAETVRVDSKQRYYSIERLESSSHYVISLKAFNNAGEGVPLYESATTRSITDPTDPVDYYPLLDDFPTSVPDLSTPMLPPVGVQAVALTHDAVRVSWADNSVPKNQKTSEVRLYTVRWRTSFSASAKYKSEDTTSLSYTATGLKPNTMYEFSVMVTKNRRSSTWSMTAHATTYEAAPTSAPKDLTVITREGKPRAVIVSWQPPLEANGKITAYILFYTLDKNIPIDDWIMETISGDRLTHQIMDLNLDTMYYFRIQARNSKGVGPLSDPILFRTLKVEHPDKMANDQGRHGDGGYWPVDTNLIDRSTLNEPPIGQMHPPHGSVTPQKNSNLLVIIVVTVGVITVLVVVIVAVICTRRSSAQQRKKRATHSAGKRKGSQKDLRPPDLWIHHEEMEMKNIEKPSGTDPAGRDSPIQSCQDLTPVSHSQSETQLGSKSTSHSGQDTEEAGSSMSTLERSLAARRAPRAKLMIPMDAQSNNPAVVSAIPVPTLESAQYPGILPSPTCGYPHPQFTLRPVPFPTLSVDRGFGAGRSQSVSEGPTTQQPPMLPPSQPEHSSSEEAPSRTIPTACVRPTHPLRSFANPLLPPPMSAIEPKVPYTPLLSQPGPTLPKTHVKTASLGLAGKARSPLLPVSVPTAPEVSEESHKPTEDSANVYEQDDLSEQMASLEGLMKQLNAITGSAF

B1: A041600035 (VHH)
chain: DVQLVESGGGSVQPGGSLRLSCAASGSIFSSTAMAWYRQAPGKQRDLVAVISTVGITKYADSVKGRFTISRDNAKNTVYLQMNSLRPEDTALYYCTSDARRGWDTRYWGQGTLVTVSSGGGGSGGGSEVQLVESGGGSVQPGGSLRLSCAASGSIFSSTAMAWYRQAPGKQRDLVAVISTVGITKYADSVKGRFTISRDNAKNTVYLQMNSLRPEDTALYYCTSDARRGWDTRYWGQGTLVTVSSGGGGSGGGSEVQLVESGGGVVQPGGSLRLSCAASGFTFRSFGMSWVRQAPGKGPEWVSSISGSGSDTLYADSVKGRFTISRDNSKNTLYLQMNSLRPEDTALYYCTIGGSLSRSSQGTLVTVSSA
notes: Trivalent ISVD construct (two anti-CX3CR1 ISVDs, one anti-albumin ISVD), C-terminal alanine included in the entry; also called 54A12_SO (E1D)-9GS-54A12_SO-9GS-ALB23002-A
On to B1, for which the binding result with MCAM and in the test with DCC was “no binding (tested: 20 ug/ml)” throughout. Also, the Kd in the test with cynomolgus CX3CR1 [1] is 0.11 nM. The same molecule came in with an EC50 with cynomolgus CX3CR1 [2] of 0.24 nM. Also, the top with cynomolgus CX3CR1 [2] worked out at 411000.

B2: A041600041 (VHH)
chain: DVQLVESGGGSVQPGGSLRLSCAASGSIFSSTAMAWYRQAPGKQRDLVAVISTVGITKYADSVKGRFTISRDNAKNTVYLQMNSLRPEDTALYYCTSDARRGWDTRYWGQGTLVTVSSGGGGSGGGSEVQLVESGGGSVQPGGSLRLSCAASGSIFSSTAMAWYRQAPGKRRDLVAAINTVGVTKYADSVKGRFTISRDNAKNTVYLQMNSLRPEDTALYYCTSDPRRGWDTRYWGQGTLVTVSSGGGGSGGGSEVQLVESGGGVVQPGGSLRLSCAASGFTFRSFGMSWVRQAPGKGPEWVSSISGSGSDTLYADSVKGRFTISRDNSKNTLYLQMNSLRPEDTALYYCTIGGSLSRSSQGTLVTVSSA
notes: Trivalent ISVD construct (two anti-CX3CR1 ISVDs, one anti-albumin ISVD), C-terminal alanine included in the entry; also called 54A12_SO (E1D)-9GS-66B02_SO-9GS-ALB23002-A
On to B2, for which the binding result with human CX3CR1 V249I/T280M is reported as “binds”. In the test with cynomolgus CX3CR1 [2], this molecule came in with an EC50 of 0.15 nM and a top of 346000.

B3: A041600025 (VHH)
chain: DVQLVESGGGSVQPGGSLRLSCAASGSIFSSTAMAWYRQAPGKQRDLVAVISTVGITKYADSVKGRFTISRDNAKNTVYLQMNSLRPEDTALYYCTSDARRGWDTRYWGQGTLVTVSSGGGGSGGGSEVQLVESGGGVVQPGGSLRLSCAASGFTFRSFGMSWVRQAPGKGPEWVSSISGSGSDTLYADSVKGRFTISRDNSKNTLYLQMNSLRPEDTALYYCTIGGSLSRSSQGTLVTVSSGGGGSGGGSEVQLVESGGGSVQPGGSLRLSCAASGSIFSSTAMAWYRQAPGKQRDLVAVISTVGITKYADSVKGRFTISRDNAKNTVYLQMNSLRPEDTALYYCTSDARRGWDTRYWGQGTLVTVSSA
notes: Trivalent ISVD construct (two anti-CX3CR1 ISVDs, one anti-albumin ISVD), C-terminal alanine included in the entry; also called 54A12_SO (E1D)-9GS-ALB23002-9GS-54A12_SO-A
In the test with cynomolgus CX3CR1 [2], B3 had an EC50 of 0.36 nM and a top of 266000.

B4: A041600034 (VHH)
chain: DVQLVESGGGSVQPGGSLRLSCAASGSIFSSTAMAWYRQAPGKQRDLVAVISTVGITKYADSVKGRFTISRDNAKNTVYLQMNSLRPEDTALYYCTSDARRGWDTRYWGQGTLVTVSSGGGGSGGGSEVQLVESGGGVVQPGGSLRLSCAASGFTFRSFGMSWVRQAPGKGPEWVSSISGSGSDTLYADSVKGRFTISRDNSKNTLYLQMNSLRPEDTALYYCTIGGSLSRSSQGTLVTVSSGGGGSGGGSEVQLVESGGGSVQPGGSLRLSCAASGSIFSSTAMAWYRQAPGKRRDLVAAINTVGVTKYADSVKGRFTISRDNAKNTVYLQMNSLRPEDTALYYCTSDPRRGWDTRYWGQGTLVTVSSA
notes: Trivalent ISVD construct; also called 54A12_SO (E1D)-9GS-ALB23002-9GS-66B02_SO-A
B4: in the test with cynomolgus CX3CR1 [2], a half-maximal effect (EC50) was put at 0.45 nM and the top worked out at 273000.

B5: A041600085 (VHH)
chain: DVQLVESGGGLVQPGGSLRLSCAASGSIFSSTAMAWYRQAPGKRRDLVAAISTVGVTKYADSVKGRFTISRDNSKNTVYLQMNSLRPEDTAVYYCTSDPRRGWDTRYWGQGTLVTVSSGGGGSGGGSEVQLVESGGGVVQPGGSLRLSCAASGFTFRSFGMSWVRQAPGKGPEWVSSISGSGSDTLYADSVKGRFTISRDNSKNTLYLQMNSLRPEDTALYYCTIGGSLSRSSQGTLVTVSSGGGGSGGGSEVQLVESGGGLVQPGGSLRLSCAASGSIFSSTAMAWYRQAPGKRRDLVAAISTVGVTKYADSVKGRFTISRDNSKNTVYLQMNSLRPEDTAVYYCTSDPRRGWDTRYWGQGTLVTVSSA
notes: also called 307-9GS-ALB23002-9GS-307 (D1E)-A
As to B5, the binding result with human CX3CR1 V249I/T280M is on record as “binds”. The “fold difference in EC50 (cyno CX3CR1 against human CX3CR1)” value in the test with cynomolgus CX3CR1 [3] amounted to 3.3 fold. Moreover, in the test with cynomolgus CX3CR1 [2], the midpoint of the response, the EC50, lay at 0.56 nM and the top was 186000.
